Data reported in PMC9482650, “Quantitative fragmentomics allow affinity mapping of interactomes” (Nature Communications, 2022).

What was measured:
Assay in all cases: holdup assay
Parameters in all cases: key: below the threshold = too weak to quantify, mostly under pKd 3.1 to 4
[1] = molecular target: AHNAK1, Q09666
[2] = molecular target: DLG1_3, Q12959
[3] = molecular target: T1, FRMPD1, Q5SYB0
T1 sequence (Q5SYB0 52-145, limits assumed, looked up): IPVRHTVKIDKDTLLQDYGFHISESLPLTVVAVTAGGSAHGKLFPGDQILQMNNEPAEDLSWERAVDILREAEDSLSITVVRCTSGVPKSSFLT

[4] = molecular target: FRMPD2_1, Q68DX3
FRMPD2_1, Q68DX3, sequence (Q68DX3 770-861): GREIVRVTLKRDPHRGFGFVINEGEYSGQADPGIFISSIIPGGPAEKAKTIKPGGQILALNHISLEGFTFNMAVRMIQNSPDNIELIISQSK

[5] = molecular target: GRID2IP_1, A4D2P6
GRID2IP_1, A4D2P6, sequence (A4D2P6 1-87): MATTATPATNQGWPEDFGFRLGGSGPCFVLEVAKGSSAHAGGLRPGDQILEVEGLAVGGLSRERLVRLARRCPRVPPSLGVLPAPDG

[6] = molecular target: T2, GRIP1_2, Q9Y3R0
T2 sequence (Q9Y3R0 145-248, limits assumed, looked up): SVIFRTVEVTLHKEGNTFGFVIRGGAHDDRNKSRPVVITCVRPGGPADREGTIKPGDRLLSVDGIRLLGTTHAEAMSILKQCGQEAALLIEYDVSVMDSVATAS

[7] = molecular target: GRIP2_7, Q9C0E4
GRIP2_7, Q9C0E4, sequence (Q9C0E4 934-1023): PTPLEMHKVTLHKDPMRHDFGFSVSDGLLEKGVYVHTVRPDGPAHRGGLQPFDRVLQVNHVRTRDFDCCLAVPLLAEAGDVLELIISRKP

[8] = molecular target: T3, HTRA4, P83105
T3 sequence (P83105 378-476, limits assumed, looked up): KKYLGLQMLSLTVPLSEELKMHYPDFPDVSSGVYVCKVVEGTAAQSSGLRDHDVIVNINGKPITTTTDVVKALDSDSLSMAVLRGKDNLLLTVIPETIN

[9] = molecular target: IL16_1, Q14005
IL16_1, Q14005, sequence (Q14005 210-306): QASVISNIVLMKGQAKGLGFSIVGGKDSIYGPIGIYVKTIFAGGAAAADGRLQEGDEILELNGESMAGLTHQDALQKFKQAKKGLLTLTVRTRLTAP

[10] = molecular target: IL16_4, Q14005
IL16_4, Q14005, sequence (Q14005 1229-1329): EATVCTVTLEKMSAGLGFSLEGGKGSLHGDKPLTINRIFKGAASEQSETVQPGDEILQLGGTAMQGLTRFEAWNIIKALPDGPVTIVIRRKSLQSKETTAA

[11] = molecular target: Inadl_1, Q8NI35
Inadl_1, Q8NI35, sequence (Q8NI35 113-229): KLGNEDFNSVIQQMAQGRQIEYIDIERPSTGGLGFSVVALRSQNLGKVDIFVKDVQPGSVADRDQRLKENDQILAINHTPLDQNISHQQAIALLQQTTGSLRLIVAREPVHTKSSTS

[12] = molecular target: Inadl_2, Q8NI35
Inadl_2, Q8NI35, sequence (Q8NI35 238-335): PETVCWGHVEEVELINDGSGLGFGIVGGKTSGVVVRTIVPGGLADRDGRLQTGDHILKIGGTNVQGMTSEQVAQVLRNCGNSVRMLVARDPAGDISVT

[13] = molecular target: Inadl_3, Q8NI35
Inadl_3, Q8NI35, sequence (Q8NI35 359-469): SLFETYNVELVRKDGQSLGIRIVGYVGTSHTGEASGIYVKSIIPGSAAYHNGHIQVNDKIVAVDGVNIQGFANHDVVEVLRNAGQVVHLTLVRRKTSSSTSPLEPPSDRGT

[14] = molecular target: MAGI1_1, Q96QZ7
MAGI1_1, Q96QZ7, sequence (Q96QZ7 1-106): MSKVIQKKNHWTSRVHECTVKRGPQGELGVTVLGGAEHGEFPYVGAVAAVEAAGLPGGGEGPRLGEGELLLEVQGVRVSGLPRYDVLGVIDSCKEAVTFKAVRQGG

[15] = molecular target: MAGI2_3, Q86UL8
MAGI2_3, Q86UL8, sequence (Q86UL8 600-682): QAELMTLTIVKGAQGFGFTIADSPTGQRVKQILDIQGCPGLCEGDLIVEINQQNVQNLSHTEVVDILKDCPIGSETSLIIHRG

[16] = molecular target: MAGI2_4, Q86UL8
MAGI2_4, Q86UL8, sequence (Q86UL8 772-865): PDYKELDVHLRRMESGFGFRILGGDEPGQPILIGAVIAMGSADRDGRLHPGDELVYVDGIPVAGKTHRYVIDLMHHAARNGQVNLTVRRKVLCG

[17] = molecular target: MAGI2_5, Q86UL8
MAGI2_5, Q86UL8, sequence (Q86UL8 915-1017): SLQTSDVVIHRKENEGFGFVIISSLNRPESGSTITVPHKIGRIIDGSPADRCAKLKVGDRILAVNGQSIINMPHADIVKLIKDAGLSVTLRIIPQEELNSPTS

[18] = molecular target: T4, MPDZ_12, O75970
T4 sequence (O75970 1857-1958, limits assumed, looked up): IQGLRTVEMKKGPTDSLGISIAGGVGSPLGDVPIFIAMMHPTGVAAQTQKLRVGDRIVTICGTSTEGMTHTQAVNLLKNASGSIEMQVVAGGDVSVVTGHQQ

[19] = molecular target: T5, MPDZ_5, O75970
T5 sequence (O75970 695-796, limits assumed, looked up): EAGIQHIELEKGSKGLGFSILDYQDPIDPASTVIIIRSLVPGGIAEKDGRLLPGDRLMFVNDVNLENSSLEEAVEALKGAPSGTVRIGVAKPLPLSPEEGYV

[20] = molecular target: T6, MPP7, Q5T2T1
T6 sequence (Q5T2T1 134-230, limits assumed, looked up): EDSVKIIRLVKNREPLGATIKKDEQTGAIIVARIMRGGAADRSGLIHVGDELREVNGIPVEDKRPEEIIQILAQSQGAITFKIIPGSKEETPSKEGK

[21] = molecular target: NHERF2_2, Q15599
NHERF2_2, Q15599, sequence (Q15599 142-238): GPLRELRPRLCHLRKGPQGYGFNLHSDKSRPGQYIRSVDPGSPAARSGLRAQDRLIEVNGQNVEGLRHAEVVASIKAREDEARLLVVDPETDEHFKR

[22] = molecular target: T7, NHERF3_3, Q5T2W1
T7 sequence (Q5T2W1 238-333, limits assumed, looked up): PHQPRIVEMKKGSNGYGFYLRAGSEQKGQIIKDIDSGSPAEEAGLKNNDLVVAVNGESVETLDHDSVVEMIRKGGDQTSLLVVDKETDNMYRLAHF

[23] = molecular target: NHERF4_2, Q86UT5
NHERF4_2, Q86UT5, sequence (Q86UT5 220-308): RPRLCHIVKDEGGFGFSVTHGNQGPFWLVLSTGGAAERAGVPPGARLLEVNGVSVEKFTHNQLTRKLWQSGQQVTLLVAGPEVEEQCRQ

[24] = molecular target: PDZRN4_1, Q6ZMN7
PDZRN4_1, Q6ZMN7, sequence (Q6ZMN7 213-318): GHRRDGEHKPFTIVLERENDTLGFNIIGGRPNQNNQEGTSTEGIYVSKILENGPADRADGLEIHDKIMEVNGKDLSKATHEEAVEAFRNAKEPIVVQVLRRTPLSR

[25] = molecular target: T8, SNTB1, Q13884
T8 sequence (Q13884 107-205, limits assumed, looked up): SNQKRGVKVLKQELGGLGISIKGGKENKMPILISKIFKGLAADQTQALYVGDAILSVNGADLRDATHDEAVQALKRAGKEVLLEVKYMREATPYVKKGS

[26] = molecular target: T9, TIAM2, Q8IVF5
T9 sequence (Q8IVF5 885-986, limits assumed, looked up): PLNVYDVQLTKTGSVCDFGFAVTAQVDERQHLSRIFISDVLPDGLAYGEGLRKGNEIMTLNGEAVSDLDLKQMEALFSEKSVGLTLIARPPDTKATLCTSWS

[27] = molecular target: TJP2_1, Q9UDY2
TJP2_1, Q9UDY2, sequence (Q9UDY2 24-128): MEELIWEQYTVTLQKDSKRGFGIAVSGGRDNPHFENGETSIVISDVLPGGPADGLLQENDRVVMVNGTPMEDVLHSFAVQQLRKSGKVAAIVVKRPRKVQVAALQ

[28] = molecular target: T10, TJP3_3, O95049
T10 sequence (O95049 375-456, limits assumed, looked up): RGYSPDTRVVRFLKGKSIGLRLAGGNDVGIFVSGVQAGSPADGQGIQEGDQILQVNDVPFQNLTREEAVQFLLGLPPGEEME

[29] = plain residues with an end cap or a label only (N-terminal biotin on a linker: ahx)
[30] = plain residues with an end cap or a label only (N-terminal biotin on a linker: ado-ado)

AHNAK1, Q09666, sequence (Q09666 4-100): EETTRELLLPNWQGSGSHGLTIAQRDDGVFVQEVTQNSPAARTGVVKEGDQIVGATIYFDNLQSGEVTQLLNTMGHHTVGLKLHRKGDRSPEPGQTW
DLG1_3, Q12959, sequence (Q12959 457-571): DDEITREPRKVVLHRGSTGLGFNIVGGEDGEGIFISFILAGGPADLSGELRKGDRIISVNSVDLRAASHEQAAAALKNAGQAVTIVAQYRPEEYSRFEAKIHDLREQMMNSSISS

Binder: KEYDDELTFF [USH1C, Q9Y6N9]
- pKd [1, 29]: below the threshold
- pKd [2, 29]: below the threshold
- pKd [3, 29]: below the threshold
- pKd [4, 29]: below the threshold
- pKd [5, 29]: below the threshold
- pKd [6, 29]: below the threshold
- pKd [7, 29]: below the threshold
- pKd [8, 29]: below the threshold
- pKd [9, 29]: below the threshold
- pKd [10, 29]: below the threshold
- pKd [11, 29]: below the threshold
- pKd [12, 29]: 4.09
- pKd [13, 29]: 3.89
- pKd [14, 29]: below the threshold
- pKd [15, 29]: below the threshold
- pKd [16, 29]: 3.51
- pKd [17, 29]: 3.96
- pKd [18, 29]: below the threshold
- pKd [19, 29]: below the threshold
- pKd [20, 29]: below the threshold
- pKd [21, 29]: 5.32
- pKd [22, 29]: below the threshold
- pKd [23, 29]: below the threshold
- pKd [24, 29]: below the threshold
- pKd [25, 29]: below the threshold
- pKd [26, 29]: below the threshold
- pKd [27, 29]: below the threshold
- pKd [28, 29]: below the threshold

Binder: DAAHHDESNC [FMNL3, Q8IVF7]
- pKd [1, 30]: below the threshold
- pKd [2, 30]: below the threshold
- pKd [3, 30]: below the threshold
- pKd [4, 30]: below the threshold
- pKd [5, 30]: below the threshold
- pKd [6, 30]: below the threshold
- pKd [7, 30]: below the threshold
- pKd [8, 30]: below the threshold
- pKd [9, 30]: below the threshold
- pKd [10, 30]: below the threshold
- pKd [11, 30]: below the threshold
- pKd [12, 30]: below the threshold
- pKd [13, 30]: below the threshold
- pKd [14, 30]: below the threshold
- pKd [15, 30]: below the threshold
- pKd [16, 30]: below the threshold
- pKd [17, 30]: below the threshold
- pKd [18, 30]: below the threshold
- pKd [19, 30]: below the threshold
- pKd [20, 30]: below the threshold
- pKd [21, 30]: below the threshold
- pKd [22, 30]: below the threshold
- pKd [23, 30]: below the threshold
- pKd [24, 30]: below the threshold
- pKd [25, 30]: below the threshold
- pKd [26, 30]: 3.8
- pKd [27, 30]: below the threshold
- pKd [28, 30]: below the threshold

Binder: EKPIDSETKM [SLC1A3, P43003]
- pKd [1, 30]: below the threshold
- pKd [2, 30]: below the threshold
- pKd [3, 30]: below the threshold
- pKd [4, 30]: below the threshold
- pKd [5, 30]: below the threshold
- pKd [6, 30]: below the threshold
- pKd [7, 30]: below the threshold
- pKd [8, 30]: below the threshold
- pKd [9, 30]: below the threshold
- pKd [10, 30]: below the threshold
- pKd [11, 30]: below the threshold
- pKd [12, 30]: below the threshold
- pKd [13, 30]: below the threshold
- pKd [14, 30]: below the threshold
- pKd [15, 30]: below the threshold
- pKd [16, 30]: below the threshold
- pKd [17, 30]: below the threshold
- pKd [18, 30]: below the threshold
- pKd [19, 30]: below the threshold
- pKd [20, 30]: below the threshold
- pKd [21, 30]: 4.47
- pKd [22, 30]: 3.61
- pKd [23, 30]: below the threshold
- pKd [24, 30]: below the threshold
- pKd [25, 30]: below the threshold
- pKd [26, 30]: below the threshold
- pKd [27, 30]: below the threshold
- pKd [28, 30]: below the threshold
